This is an account of results in publication doi:10.1101/2024.10.15.618347.

This data set concerns the target YTHDC1 YTH domain (UniProt Q96MU7 345-509). The experiment in a line: EMSA. A general note: A gel shift assay detects complexes by their altered migration in electrophoresis.

B1: MALAT1 oligo, m6A (ssRNA)
RNA: AACUUAAUGUUUUUGCAUUGGACUUUGAGUU
modifications: m6A at position 22 (GGACU to GG(m6A)CU)
On to B1, for which the binding result is “binds”.
